Measurements reported in paper PMC12669046.

Target: T1, MS2 coat protein (fluorescently labelled) (MS2 virus) (UniProt P03612)
T1 sequence: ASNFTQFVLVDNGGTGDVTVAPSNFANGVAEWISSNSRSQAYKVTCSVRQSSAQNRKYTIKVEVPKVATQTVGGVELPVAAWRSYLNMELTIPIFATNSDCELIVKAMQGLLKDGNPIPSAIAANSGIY
Assay: RNA-MaP
Conditions: RNA-MaP on MiSeq chip: MS2 protein 0.7-1,500 nM, incubation 0.8-1.5 h (lowest concentrations) to 10-20 min (highest), buffer and temperature per ref. 14, not …

Sequence	binding signal (200 nM input RNA S1 (on state), scale: fold)	binding signal (fold (qARLB, off Kd / on Kd))
AGUCCACGCUGACGUGGACAAAAGCAUGUACAUGAGGAUCACCCAUGUCAUGUACAAGCUUUUUGCUCGUCUUAAAA	110	
CCGAAAACGGGAACCUUAUUCUUUAUGCAUGUUCAGGAAACUGAGCAUGCAAACAUGAGGAUCACCCAUGUGUUGUGGGAUCAGC [6348262 C85 G11 Eli Fisker mod (ratio sensor, top R2)]		11
GAUUACGAGAGUGUUAUUCUUUGGAGUGGGACAUGAGGAUCACCCAUGUAAAUGUACAUGUUAGCUGCUUAGCAGUUGACAUGAU [6248647 U62 jandersonlee mod (ratio sensor, top R3)]		34
